# Measurements from patent publication US20090136433A1.
# Target: hair (human) (human)
# Experiment: binding test on 5 mg human hair; bound His-tagged protein detected with anti-polyhistidine peroxidase conjugate and TMB; buffer control A405 nm = 0.05
substance,measurement,value
Comparison protein YaaD from B. subtilis with His tag (from UniProt P37527 1-294),A405 nm (absorption at 405 nm) (absorption at 405 nm),0.12
